{
  "source": "paper PMC9352680",
  "about": "“A comprehensive thermodynamic model for RNA binding by the Saccharomyces cerevisiae Pumilio protein PUF4”",
  "data": [
    {"target": "T1, PUF4 RNA-binding domain (Saccharomyces cerevisiae, UniProt P25339 537-888)", "T1 sequence": "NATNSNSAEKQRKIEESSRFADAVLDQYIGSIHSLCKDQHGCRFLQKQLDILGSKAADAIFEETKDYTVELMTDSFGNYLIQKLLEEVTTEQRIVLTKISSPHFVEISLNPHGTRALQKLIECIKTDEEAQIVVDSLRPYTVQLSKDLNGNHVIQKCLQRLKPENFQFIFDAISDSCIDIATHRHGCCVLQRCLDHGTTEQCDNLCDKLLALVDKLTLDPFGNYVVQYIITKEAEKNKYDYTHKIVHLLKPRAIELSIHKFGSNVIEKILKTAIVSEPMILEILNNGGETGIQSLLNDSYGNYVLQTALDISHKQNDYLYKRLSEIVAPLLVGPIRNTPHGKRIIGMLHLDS", "assay": "Mg; RNA-MaP; 20 mM Na-HEPES pH 7.4, 30 mM KOAc, 0.75 mM MgCl2, 0.1% Tween-20, 5% glycerol, 0.1 mg/mL BSA, 2 mM DTT; 25 C; 0.0125-409.6 nM protein", "conditions": "tags: N-His6-TEV cleaved; C-SNAP kept, Cy3B-labelled; label: tethered on chip by stalled RNA polymerase", "units": {"Kd": "nM"}, "values": [
      {"binder": "UCUCUUUCGUGUAUAUUAGUUCUCUU (ssRNA)", "note": "[Id_iii_S1_P4E.5_K4.1_C4.3_[T-1G]_H4.1_A4.1_F4.1_T4.2]", "Kd": 0.46},
      {"binder": "UCUCUUUUUUAUAUAUAUAUCUCUU (ssRNA)", "note": "[Id_iii_S1_P3E.6_K3.2_C3.3_[C-2T]_H3.2_A3.1_F3.1_T3.2]", "Kd": 486},
      {"binder": "UCUCUUUCUACACUAUACAUCUCUU (ssRNA)", "note": "[Id_iii_S1_P3E.7_K3.3_C3.3_H3.3_A3.1_F3.1_T3.2_[T9C]]", "Kd": 2260},
      {"binder": "UCUCUUUAUUAUAUAUAUAUCUCUU (ssRNA)", "note": "[Id_iii_S1_P3E.6_K3.2_C3.3_[C-2A]_H3.2_A3.1_F3.1_T3.2]", "Kd": 373},
      {"binder": "UCUCUUUGUUGUAUAUUAGUUCUCUU (ssRNA)", "note": "[Id_iii_S1_P4E.5_K4.1_C4.3_[C-2G]_H4.1_A4.1_F4.1_T4.2]", "Kd": 0.332},
      {"binder": "UCUCUUUUUUGUAAAAAUAUCUCUU (ssRNA)", "note": "[Id_iii_S1_P3E.9_K3.5_C3.3_[C-2T]_H3.1_A3.2_F3.2_T3.2]", "Kd": 78.2},
      {"binder": "UCUCUUCCUUAUAUAUAUAUCUCUU (ssRNA)", "note": "[Id_iii_S1_P3E.6_K3.2_C3.3_[T-3C]_H3.2_A3.1_F3.1_T3.2]", "Kd": 364},
      {"binder": "UCUCUUACUUGUAAAUAUAUCUCUU (ssRNA)", "note": "[Id_iii_S1_P3E.8_K3.4_C3.3_[T-3A]_H3.1_A3.2_F3.1_T3.2]", "Kd": 25.7},
      {"binder": "UCUCUUUCAUAUAUAUAUAUCUCUU (ssRNA)", "note": "[Id_iii_S1_P3E.6_K3.2_C3.3_[T-1A]_H3.2_A3.1_F3.1_T3.2]", "Kd": 592},
      {"binder": "UCUCUUUUUUAUAUAUUAGUUCUCUU (ssRNA)", "note": "[Id_iii_S1_P4E.6_K4.2_C4.3_[C-2T]_H4.2_A4.1_F4.1_T4.2]", "Kd": 11},
      {"binder": "UCUCUUACUUGUAUAUAUAUCUCUU (ssRNA)", "note": "[Id_iii_S1_P3E.5_K3.1_C3.3_[T-3A]_H3.1_A3.1_F3.1_T3.2]", "Kd": 5.04},
      {"binder": "UCUCUUUCUUGUAUAUAUUUCUCUU (ssRNA)", "note": "[Id_iii_S1_P3E.5_K3.1_C3.3_H3.1_A3.1_F3.1_T3.2_[A10T]]", "Kd": 6.04},
      {"binder": "UCUCUUCCUUGUAUAUAUAUCUCUU (ssRNA)", "note": "[Ie_S1_P3E.2_K3.1_C3.2_[+-2C]_H3.1_A3.1_F3.1_T3.2]", "Kd": 6.23},
      {"binder": "UCUCUUUCGUGUAUAUAUAUCUCUU (ssRNA)", "note": "[Id_iii_S1_P3E.5_K3.1_C3.3_[T-1G]_H3.1_A3.1_F3.1_T3.2]", "Kd": 6.72},
      {"binder": "UCUCUUUCAUGUAAAUAUAUCUCUU (ssRNA)", "note": "[Id_iii_S1_P3E.8_K3.4_C3.3_[T-1A]_H3.1_A3.2_F3.1_T3.2]", "Kd": 19.7},
      {"binder": "UCUCUUUCGUGUAAAUAUAUCUCUU (ssRNA)", "note": "[Id_iii_S1_P3E.8_K3.4_C3.3_[T-1G]_H3.1_A3.2_F3.1_T3.2]", "Kd": 18.6},
      {"binder": "UCUCUUGCUUGUAAAUAUAUCUCUU (ssRNA)", "note": "[Id_iii_S1_P3E.8_K3.4_C3.3_[T-3G]_H3.1_A3.2_F3.1_T3.2]", "Kd": 20.2},
      {"binder": "UCUCUUUCUUAUAUAUUAUUUCUCUU (ssRNA)", "note": "[Id_iii_S1_P4E.6_K4.2_C4.3_H4.2_A4.1_F4.1_T4.2_[G10T]]", "Kd": 15.1},
      {"binder": "UCUCUUUCUUAUAUAUAUGUCUCUU (ssRNA)", "note": "[Id_iii_S1_P3E.6_K3.2_C3.3_H3.2_A3.1_F3.1_T3.2_[A10G]]", "Kd": 755},
      {"binder": "UCUCUUUUUUGUAAAUAUAUCUCUU (ssRNA)", "note": "[Id_iii_S1_P3E.8_K3.4_C3.3_[C-2T]_H3.1_A3.2_F3.1_T3.2]", "Kd": 17.6},
      {"binder": "UCUCUUUGUUCUAUUAUCUCUU (ssRNA)", "note": "[Ib_S1_P5E.1_K5.1_C5.1_H5.1_[A4T]_A5.1_[T5C]_F5.1_T5.1]", "Kd": 31.7},
      {"binder": "UCUCUUUGUGUAAUUAUCUCUU (ssRNA)", "note": "[Ib_S1_P5E.1_K5.1_C5.1_H5.1_[A4G]_A5.1_[T6A]_F5.1_T5.1]", "Kd": 27.5},
      {"binder": "UCUCUUUAUACACUAUAUAUCUCUU (ssRNA)", "note": "[Id_iii_S1_P3E.7_K3.3_C3.3_[C-2A]_H3.3_A3.1_F3.1_T3.2]", "Kd": 31.6},
      {"binder": "UCUCUUCCUUGUAAAUAUAUCUCUU (ssRNA)", "note": "[Id_iii_S1_P3E.8_K3.4_C3.3_[T-3C]_H3.1_A3.2_F3.1_T3.2]", "Kd": 16.5},
      {"binder": "UCUCUUUCAACACUAUAUAUCUCUU (ssRNA)", "note": "[Id_iii_S1_P3E.7_K3.3_C3.3_[T-1A]_H3.3_A3.1_F3.1_T3.2]", "Kd": 1700},
      {"binder": "UCUCUUUCCUGUAAAUAUAUCUCUU (ssRNA)", "note": "[Id_iii_S1_P3E.8_K3.4_C3.3_[T-1C]_H3.1_A3.2_F3.1_T3.2]", "Kd": 11.1},
      {"binder": "UCUCUUUGUCUCAUUAUCUCUU (ssRNA)", "note": "[Ib_S1_P5E.1_K5.1_C5.1_H5.1_[A4C]_A5.1_[T6C]_F5.1_T5.1]", "Kd": 35.9},
      {"binder": "UCUCUUUGUACACUAUAUAUCUCUU (ssRNA)", "note": "[Id_iii_S1_P3E.7_K3.3_C3.3_[C-2G]_H3.3_A3.1_F3.1_T3.2]", "Kd": 1.32},
      {"binder": "UCUCUUUCAUGUAUAUUAGUUCUCUU (ssRNA)", "note": "[Id_iii_S1_P4E.5_K4.1_C4.3_[T-1A]_H4.1_A4.1_F4.1_T4.2]", "Kd": 0.332},
      {"binder": "UCUCUUUUUACACUAUAUAUCUCUU (ssRNA)", "note": "[Id_iii_S1_P3E.7_K3.3_C3.3_[C-2T]_H3.3_A3.1_F3.1_T3.2]", "Kd": 2050},
      {"binder": "UCUCUUUGUUGUAUAUAUAUCUCUU (ssRNA)", "note": "[Id_iii_S1_P3E.5_K3.1_C3.3_[C-2G]_H3.1_A3.1_F3.1_T3.2]", "Kd": 5.21}
    ]}
  ]
}
